This is an account of results in patent US10183062B2, “Treatment for cancer” (The University of Nottingham, priority 2013, dated 2019).

By Km is commonly meant the concentration of substrate that gives half-maximal velocity.

Entries after “also recorded” stand apart in the source; their conditions may differ.

In data set [1] the test system is E. coli NfnB nitroreductase, wild type. The following applies: Knox et al., 1992; read-out: Km^NADH; cited from earlier work.
The test system of data set [2] is E. coli NfnB variant N71S/F124K. The following applies: Searle et al., 2004 and Race et al., 2007; read-out: Km^NADH; cited from earlier work.
Data set [3] deals with BliNTR, NTR from Bacillus licheniformis. The note with it: Emptage et al., 2009; read-out: Km^NADH; cited from earlier work.
For data set [4], the system named is NC(=O)C1=CN([C@@H]2O[C@H](COP(=O)(O)OP(=O)(O)OC[C@H]3O[C@@H](n4cnc5c(N)ncnc54)[C@H](O)[C@@H]3O)[C@@H](O)[C@H]2O)C=CC1. Put plainly: CB1954 nitroreductase activity, HPLC, purified His-tagged HsoNTR. In kind it is biochemical, Haemophilus somnus 129PT. The note with it: other: 37° C., pH 7.0. From the text: (§1) Genes encoding homologs of E. coli NfnB and Bacillus amyloliquefaciens YwrO from several bacteria were cloned into an E. coli expression vector for screening (see Methods below). These were the NfnB homolog from Neisseria meningitidis MC58 (‘NmeNTR’, accession number Q9K022), the NfnB homolog from Haemophilus somnus 129PT (‘HsoNTR’, accession number ZP_00122352.1), the NfnB homolog from Burkholderia fungorum LB400 (‘BfuNTR’, accession number ZP_00029570.1), the YwrO homolog from Vibrio cholerae (‘VchYwrO’, accession number Q9KNX3), the YwrO homolog from Rhodobacter sphaeroides (‘RspYwrO’, accession number ZP_00007082.1), and two YwrO homologs from Pseudomonas aeruginosa (‘PaeYwrO1’, accession number Q9HUJ0; and ‘PaeYwrO2’, accession number Q9I4B3).
(§2) For determination of CB1954 nitroreductase kinetic parameters, six-histidine affinity-tagged enzymes were purified from cell lysates purified using a Novagen His-Bind kit in accordance with the manufacturer's instructions.
(§3) CB1954 nitroreductase activity was determined essentially as described by Anlezark (6). Reaction mixtures containing 500 μM NADH or NADPH and a small quantity of enzyme (either crude lysate or purified enzyme) were assembled in pre-warmed (to 37° C.) 100 mM sodium phosphate buffer (pH 7.0), and started with the addition of 100 μM CB1954 and prompt mixing.
(§4) To determine initial reaction rates during preliminary screening of CB1954 nitroreductase candidates, aliquots of the reaction mixtures taken at various times were injected into a Partisphere SCX (100×4.7 mm) HPLC column and eluted isocratically at 2 ml/min with 130 mM NaH2PO4 (pH 5.0). Eluates were continuously monitored at 260 nm and 325 nm, and the absorbance spectra of eluting components recorded using a photodiode array detector. Peaks were identified with reference to standards and/or by their known absorbance spectra (7) and anticipated column retention times as appropriate. Rates were determined based on the decrease in the area under the CB1954 peak over time, normalised to the known starting concentration of 100 μM using the peak from the zero timepoint sample.
(§5) To determine initial reaction rates and CB1954 nitroreduction products in later experiments with purified proteins, peaks were identified as before, and rates were determined based on the increase in the area under the 4-hydroxylamine derivative peak over time, normalised using enzymatically-synthesised 4-hydroxylamine standards.
(§6) NmeNTR and HsoNTR were each affinity-tagged, over-expressed, purified, and the CB1954 nitroreductase activities of the purified proteins characterized using the HPLC assay. The reaction products and kinetic parameters of these enzymes with respect to CB1954 and NADH were determined (Table 1). […]

The test system of data set [5] is NC(=O)c1cc(N2CC2)c([N+](=O)[O-])cc1[N+](=O)[O-]. Described as above. It is filed as biochemical, Haemophilus somnus 129PT. The note with it: pH 7.0; for kcat: 37° C.
Description: as §1, §2, §3, §4, §5, §6

For data set [6], the system named is NC(=O)C1=CN([C@@H]2O[C@H](COP(=O)(O)OP(=O)(O)OC[C@H]3O[C@@H](n4cnc5c(N)ncnc54)[C@H](O)[C@@H]3O)[C@@H](O)[C@H]2O)C=CC1. Nature of the data set: CB1954 nitroreductase activity, HPLC, purified His-tagged NmeNTR. It is filed as biochemical, Neisseria meningitidis MC58. The note with it: other: 37° C., pH 7.0.
Description: as §1, §2, §3, §4, §5
(§7) NmeNTR and HsoNTR were each affinity-tagged, over-expressed, purified, and the CB1954 nitroreductase activities of the purified proteins characterized using the HPLC assay. The reaction products and kinetic parameters of these enzymes with respect to CB1954 and NADH were determined (Table 1). […] Moreover, the kinetic parameters of HsoNTR and NmeNTR differ dramatically from those of E. coli NfnB and other published enzymes (Table 1). […] NmeNTR would therefore approach saturation with CB1954 in a therapeutic regime using the maximum clinically-recommended dose, so the prodrug would be efficiently activated and high levels of tumour-specific cytotoxicity achieved.

Data set [7] deals with NC(=O)c1cc(N2CC2)c([N+](=O)[O-])cc1[N+](=O)[O-]. The data set is described as above. In kind it is biochemical, Neisseria meningitidis MC58. The note with it: pH 7.0.
Description: as §1, §2, §3, §4, §5, §7

A short description of data set [8]: CB1954 nitroreductase activity of purified His-tagged proteins (HPLC assay). In kind it is biochemical. As for the experimental part:
as §2, §3, §5, §7

Data set [9] is described as follows: Specific menadione reductase activity in lysates of E. coli cells (screen for functional expression). In kind it is biochemical. The note with it: E. coli lysates containing expression plasmid. As for the experimental part:
In an initial screen for functional expression of each of the cloned genes, specific menadione reductase activity was determined in lysates of E. coli cells containing the NfnB or YwrO homolog expression plasmid. Enzymes from these families are expected to be NAD(P)H-dependent quinone reductases regardless of their nitroreductase activity against CB1954, and a photospectrometric menadione reductase assay is available (see Methods below), so this approach provides a convenient means to assess functional expression.
(§8) Lysates of E. coli clones containing pMTL1015-based enzyme expression plasmids were prepared for preliminary characterisation of enzyme activities. […]
Menadione reductase activity was determined by the method of Knox (5). […] Reduction of cytochrome C was recorded by measuring increase in absorbance at 550 nm. Specific activities were calculated using the total protein concentrations of cell lysates, which were determined using the Bradford reagent (Sigma-Aldrich). Aliquots of cell lysates were mixed with 250 μl of Bradford reagent and incubated in the dark at room temperature for 5 min before absorbance was measured at 595 nm. Absorbance values were compared to those obtained using known concentrations of bovine serum albumin.

A short description of data set [10]: Screen for CB1954 nitroreductase activity in E. coli lysates (HPLC). The following applies: 100 μM CB1954. In kind it is biochemical. As for the experimental part: To screen for CB1954 nitroreductase activity of each of the functionally expressed genes, lysates of E. coli cells containing the NfnB or YwrO homolog expression plasmid were added to reaction mixtures containing CB1954 and the concentration of CB1954 was monitored by HPLC (see Methods below). […] Such activity was not observed in the lysates containing VchYwrO, PaeYwrO1 or PaeYwrO2.
as §8, §3
To determine initial reaction rates during preliminary screening of CB1954 nitroreductase candidates, aliquots of the reaction mixtures taken at various times were injected into a Partisphere SCX (100×4.7 mm) HPLC column and eluted isocratically at 2 ml/min with 130 mM NaH2PO4 (pH 5.0). Eluates were continuously monitored at 260 nm and 325 nm, and the absorbance spectra of eluting components recorded using a photodiode array detector. […]

Setting [11] is: other: CB1954, cofactor NADPH, 37° C.

Take `NC(=O)C1=CN([C@@H]2O[C@H](COP(=O)(O)OP(=O)(O)OC[C@H]3O[C@@H](n4cnc5c(N)ncnc54)[C@H](O)[C@@H]3O)[C@@H](O)[C@H]2O)C=CC1` [NADH]: the Km is 6 µM in [1], 5 µM in [2] and 820 µM in data set [3].
As to “HsoNTR, Haemophilus somnus 129PT nitroreductase (NfnB homolog, ZP_00122352.1), wild type, SEQ ID NO: 2 (Histophilus somni)”, the Km turned out to be 644 µM in data set [4] and 22.03 µM in data set [5] (other: 37° C.). In addition, the kcat in data set [5] (other: CB1954, cofactor NADH) was 3.5 (NADH) S^−1; in [5] (other: CB1954, cofactor NADPH), 13.13 (NADPH) S^−1.
As to “NmeNTR, Neisseria meningitidis MC58 nitroreductase (NfnB homolog, Q9K022), wild type, SEQ ID NO: 1 (Neisseria meningitidis MC58)”, the Km in data set [6] was 188 µM. Also, in data set [7] (other: 37° C.), the Km was 2.47 µM, the kcat is on record as 4.04 (NADH) and the kcat/Km was 1.636 (NADH). Further, in [7] (setting [11]), the kcat is on record as 15.23 (NADPH) and the kcat/Km was 6.166 (NADPH).

B1: NmeNTR: NfnB homolog nitroreductase from Neisseria meningitidis MC58, accession Q9K022, SEQ ID NO: 1 (protein, listed as Neisseria meningitidis)
chain: MTVLSKEQVLSAFKNRKSCRHYDAARKISAEDFQFILELGRLSPSSVGSEPWQFIVVQNPEIRQAIKPFSWGMADALDTASHLVVFLAKKNARSDSPFMLESLKRRGVTEPDAVAKSLARYQAFQADDIKILDDSRALFDWCCRQTYIALANMMTGAAMAGIDSCPVEGFNYAEMERILSGQFGLFDAAEWGVSVAATFGYRVQEIATKARRPLEETVIWA
Turning to B1, in data set [8], the Michaelis-Menten constant (Km) is under 6.3 µM and the “Km^CB1954 relative to the lowest previously reported (NfsA)” value was “seven-fold lower”. Moreover, in data set [8] (NADH), the “Kcat/K^CB1954” value was 1.636 (NADH) s^−1μM^−1. Also, the “Kcat/K^CB1954” value in [8] (NADPH) is recorded as 6.166 (NADPH) s^−1μM^−1. Moreover, the “specific menadione reductase activity of lysates versus control” value in [9] is “significantly elevated above the control”. Further, the “CB1954 nitroreductase activity (decrease in CB1954 concentration)” value in data set [10] is “caused a decrease in CB1954 concentration; also recorded: rapidly consumed”.

B2: HsoNTR: NfnB homolog nitroreductase from Haemophilus somnus 129PT, accession ZP_00122352.1, SEQ ID NO: 2 (protein, listed as Haemophilus somnus)
chain: MTTISKEHVLDSFNRRASTRYYDPNKKISNEDFSYVLEFARLSPSSVGSEPWHFLVIQNPELRAKLKPVSWGMATQIDDASHLVVILAKKNARYDSEFLVQSMKRRGLSGEQIQATKEKYHLFQAEHMKTLENDRTLFDWASKQTYIALANMLTGAALIGIDSCPIEGFNYEKVNQILTDAGVLDSDEWGVSVMATFGYRAKEIKPKSRKSLDEIVTWVK
As to B2, the “Kcat/K^CB1954” value is on record as 0.159 (NADH) s^−1μM^−1 in data set [8] (NADH) and 0.596 (NADPH) s^−1μM^−1 in [8] (NADPH). Moreover, the “specific menadione reductase activity of lysates versus control” value in [9] is “significantly elevated above the control”. The “CB1954 nitroreductase activity (decrease in CB1954 concentration)” value in data set [10] is given as “caused a decrease in CB1954 concentration; also recorded: rapidly consumed”.
